Measurements taken from publication PMC12416549 (2024).

T1: TNFR1 (Homo sapiens, UniProt P19438)
T1 chain: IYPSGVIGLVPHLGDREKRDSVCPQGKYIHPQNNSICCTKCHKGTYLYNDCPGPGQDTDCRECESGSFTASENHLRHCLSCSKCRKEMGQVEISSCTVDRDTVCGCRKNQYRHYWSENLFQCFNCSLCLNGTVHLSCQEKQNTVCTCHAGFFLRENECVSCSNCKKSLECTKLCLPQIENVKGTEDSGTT


Biological target: T1, TNFR1
Assay: yeast display SC50

Binder	apparent Kd (screen) [nM]
V57A (designed binder) MTLQELLREEALRRAEAEAFRYALELLAEKFPEQKEYLLDLAEEIESQIRSLSGVDAEDVRKFLDKEWAWVKELLAEHPAELAEVEAARAARLAELRAEVEAKVAA	0.49
V57F (designed binder) MTLQELLREEALRRAEAEAFRYALELLAEKFPEQKEYLLDLAEEIESQIRSLSGVDFEDVRKFLDKEWAWVKELLAEHPAELAEVEAARAARLAELRAEVEAKVAA	0.718
E10N (designed binder) MTLQELLRENALRRAEAEAFRYALELLAEKFPEQKEYLLDLAEEIESQIRSLSGVDVEDVRKFLDKEWAWVKELLAEHPAELAEVEAARAARLAELRAEVEAKVAA	7.78
E67T (designed binder) MTLQELLREEALRRAEAEAFRYALELLAEKFPEQKEYLLDLAEEIESQIRSLSGVDVEDVRKFLDKTWAWVKELLAEHPAELAEVEAARAARLAELRAEVEAKVAA	1.86
A28S (designed binder) MTLQELLREEALRRAEAEAFRYALELLSEKFPEQKEYLLDLAEEIESQIRSLSGVDVEDVRKFLDKEWAWVKELLAEHPAELAEVEAARAARLAELRAEVEAKVAA	0.79
V60I (designed binder) MTLQELLREEALRRAEAEAFRYALELLAEKFPEQKEYLLDLAEEIESQIRSLSGVDVEDIRKFLDKEWAWVKELLAEHPAELAEVEAARAARLAELRAEVEAKVAA	0.653
K103A (designed binder) MTLQELLREEALRRAEAEAFRYALELLAEKFPEQKEYLLDLAEEIESQIRSLSGVDVEDVRKFLDKEWAWVKELLAEHPAELAEVEAARAARLAELRAEVEAAVAA	0.718
A87G (designed binder) MTLQELLREEALRRAEAEAFRYALELLAEKFPEQKEYLLDLAEEIESQIRSLSGVDVEDVRKFLDKEWAWVKELLAEHPAELAEVEGARAARLAELRAEVEAKVAA	0.869
E10S (designed binder) MTLQELLRESALRRAEAEAFRYALELLAEKFPEQKEYLLDLAEEIESQIRSLSGVDVEDVRKFLDKEWAWVKELLAEHPAELAEVEAARAARLAELRAEVEAKVAA	2.25
V85E (designed binder) MTLQELLREEALRRAEAEAFRYALELLAEKFPEQKEYLLDLAEEIESQIRSLSGVDVEDVRKFLDKEWAWVKELLAEHPAELAEEEAARAARLAELRAEVEAKVAA	1.05
V60G (designed binder) MTLQELLREEALRRAEAEAFRYALELLAEKFPEQKEYLLDLAEEIESQIRSLSGVDVEDGRKFLDKEWAWVKELLAEHPAELAEVEAARAARLAELRAEVEAKVAA	1.54
A69C (designed binder) MTLQELLREEALRRAEAEAFRYALELLAEKFPEQKEYLLDLAEEIESQIRSLSGVDVEDVRKFLDKEWCWVKELLAEHPAELAEVEAARAARLAELRAEVEAKVAA	0.405
D59R (designed binder) MTLQELLREEALRRAEAEAFRYALELLAEKFPEQKEYLLDLAEEIESQIRSLSGVDVERVRKFLDKEWAWVKELLAEHPAELAEVEAARAARLAELRAEVEAKVAA	0.539
F31S (designed binder) MTLQELLREEALRRAEAEAFRYALELLAEKSPEQKEYLLDLAEEIESQIRSLSGVDVEDVRKFLDKEWAWVKELLAEHPAELAEVEAARAARLAELRAEVEAKVAA	0.956
A28C (designed binder) MTLQELLREEALRRAEAEAFRYALELLCEKFPEQKEYLLDLAEEIESQIRSLSGVDVEDVRKFLDKEWAWVKELLAEHPAELAEVEAARAARLAELRAEVEAKVAA	2.25
A23E (designed binder) MTLQELLREEALRRAEAEAFRYELELLAEKFPEQKEYLLDLAEEIESQIRSLSGVDVEDVRKFLDKEWAWVKELLAEHPAELAEVEAARAARLAELRAEVEAKVAA	0.49
M1K (designed binder) KTLQELLREEALRRAEAEAFRYALELLAEKFPEQKEYLLDLAEEIESQIRSLSGVDVEDVRKFLDKEWAWVKELLAEHPAELAEVEAARAARLAELRAEVEAKVAA	0.49
Y37D (designed binder) MTLQELLREEALRRAEAEAFRYALELLAEKFPEQKEDLLDLAEEIESQIRSLSGVDVEDVRKFLDKEWAWVKELLAEHPAELAEVEAARAARLAELRAEVEAKVAA	16.7

Next, values leading:

apparent Kd (screen) [nM]	Binder
0.49	A88Q (designed binder) MTLQELLREEALRRAEAEAFRYALELLAEKFPEQKEYLLDLAEEIESQIRSLSGVDVEDVRKFLDKEWAWVKELLAEHPAELAEVEAQRAARLAELRAEVEAKVAA
0.718	P79A (designed binder) MTLQELLREEALRRAEAEAFRYALELLAEKFPEQKEYLLDLAEEIESQIRSLSGVDVEDVRKFLDKEWAWVKELLAEHAAELAEVEAARAARLAELRAEVEAKVAA
0.718	A106H (designed binder) MTLQELLREEALRRAEAEAFRYALELLAEKFPEQKEYLLDLAEEIESQIRSLSGVDVEDVRKFLDKEWAWVKELLAEHPAELAEVEAARAARLAELRAEVEAKVAH
0.446	A23S (designed binder) MTLQELLREEALRRAEAEAFRYSLELLAEKFPEQKEYLLDLAEEIESQIRSLSGVDVEDVRKFLDKEWAWVKELLAEHPAELAEVEAARAARLAELRAEVEAKVAA
0.79	E5C (designed binder) MTLQCLLREEALRRAEAEAFRYALELLAEKFPEQKEYLLDLAEEIESQIRSLSGVDVEDVRKFLDKEWAWVKELLAEHPAELAEVEAARAARLAELRAEVEAKVAA
0.539	E29S (designed binder) MTLQELLREEALRRAEAEAFRYALELLASKFPEQKEYLLDLAEEIESQIRSLSGVDVEDVRKFLDKEWAWVKELLAEHPAELAEVEAARAARLAELRAEVEAKVAA
0.49	E25R (designed binder) MTLQELLREEALRRAEAEAFRYALRLLAEKFPEQKEYLLDLAEEIESQIRSLSGVDVEDVRKFLDKEWAWVKELLAEHPAELAEVEAARAARLAELRAEVEAKVAA
2.73	L96A (designed binder) MTLQELLREEALRRAEAEAFRYALELLAEKFPEQKEYLLDLAEEIESQIRSLSGVDVEDVRKFLDKEWAWVKELLAEHPAELAEVEAARAARLAEARAEVEAKVAA
